Test results as given in article PMC4837458.
Numbering of substitutions follows the chain as printed.

Tests used:
[1] = system: dPPR-4 (designed (synthetic; NTD/CTD from Zea mays PPR10)); assay: EMSA; conditions: 5 mM Mg2+; apparent Kd; EMSA: 25 mM Tris-HCl pH 8.0, 5 mM MgCl2, 5 mM DTT, 0.1 mg/ml BSA, 50 ng/ml heparin, 10% glycerol, ~2 nM 32P-RNA, 20 min on ice
[2] = system: dPPR-U8A2 N318S;D348N;N353S;D383N (designed (synthetic; NTD/CTD from Zea mays PPR10)), PDB:5I9D_1; assay: EMSA; conditions: 5 mM Mg2+; apparent Kd; EMSA: 25 mM Tris-HCl pH 8.0, 5 mM MgCl2, 5 mM DTT, 0.1 mg/ml BSA, 50 ng/ml heparin, 10% glycerol, ~2 nM 32P-RNA, 20 min on ice
[3] = system: dPPR-TN (designed (synthetic; NTD/CTD from Zea mays PPR10)); assay: EMSA; conditions: 5 mM Mg2+; apparent Kd; EMSA: 25 mM Tris-HCl pH 8.0, 5 mM MgCl2, 5 mM DTT, 0.1 mg/ml BSA, 50 ng/ml heparin, 10% glycerol, ~2 nM 32P-RNA, 20 min on ice
[4] = system: T1, dPPR-U8C2 D348S;D383S (designed (synthetic; NTD/CTD from Zea mays PPR10)), PDB:5I9G_1; assay: EMSA; conditions: 5 mM Mg2+; apparent Kd; EMSA: 25 mM Tris-HCl pH 8.0, 5 mM MgCl2, 5 mM DTT, 0.1 mg/ml BSA, 50 ng/ml heparin, 10% glycerol, ~2 nM 32P-RNA, 20 min on ice
T1 sequence: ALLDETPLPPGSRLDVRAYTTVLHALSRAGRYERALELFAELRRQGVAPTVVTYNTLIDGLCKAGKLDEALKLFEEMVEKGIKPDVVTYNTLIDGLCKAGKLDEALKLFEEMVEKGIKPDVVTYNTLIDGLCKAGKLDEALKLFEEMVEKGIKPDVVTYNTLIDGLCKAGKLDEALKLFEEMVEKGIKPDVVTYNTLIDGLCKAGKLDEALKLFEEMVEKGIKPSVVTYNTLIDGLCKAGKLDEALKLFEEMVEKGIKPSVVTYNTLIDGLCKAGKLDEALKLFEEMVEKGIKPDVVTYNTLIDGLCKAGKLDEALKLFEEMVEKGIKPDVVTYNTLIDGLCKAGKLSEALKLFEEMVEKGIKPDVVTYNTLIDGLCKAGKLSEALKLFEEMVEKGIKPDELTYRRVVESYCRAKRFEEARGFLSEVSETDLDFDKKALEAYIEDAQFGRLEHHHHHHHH

[5] = system: dPPR-NN (designed (synthetic; NTD/CTD from Zea mays PPR10)); assay: EMSA; conditions: 5 mM Mg2+; apparent Kd; EMSA: 25 mM Tris-HCl pH 8.0, 5 mM MgCl2, 5 mM DTT, 0.1 mg/ml BSA, 50 ng/ml heparin, 10% glycerol, ~2 nM 32P-RNA, 20 min on ice
[6] = system: dPPR-U8G2 N318T;N353T (designed (synthetic; NTD/CTD from Zea mays PPR10)), PDB:5I9H_1; assay: EMSA; conditions: 5 mM Mg2+; apparent Kd; EMSA: 25 mM Tris-HCl pH 8.0, 5 mM MgCl2, 5 mM DTT, 0.1 mg/ml BSA, 50 ng/ml heparin, 10% glycerol, ~2 nM 32P-RNA, 20 min on ice
[7] = system: dPPR-SD (designed (synthetic; NTD/CTD from Zea mays PPR10)); assay: EMSA; conditions: 5 mM Mg2+; apparent Kd; EMSA: 25 mM Tris-HCl pH 8.0, 5 mM MgCl2, 5 mM DTT, 0.1 mg/ml BSA, 50 ng/ml heparin, 10% glycerol, ~2 nM 32P-RNA, 20 min on ice
[8] = biological target: T2, dPPR-U10 (designed (synthetic; NTD/CTD from Zea …, UniProt PDB:5I9F_1 1-460); assay: X-ray crystallography; 2.20 A; EMSA: 25 mM Tris-HCl pH 8.0, 5 mM MgCl2, 5 mM DTT, 0.1 mg/ml BSA, 50 ng/ml heparin, 10% glycerol, ~2 nM 32P-RNA, 20 min on ice
T2 chain: T1 sequence with S225D, S260D, S348D, S383D

[9] = biological target: T2, dPPR-U10; assay: EMSA; 5 mM Mg2+; apparent Kd; EMSA: 25 mM Tris-HCl pH 8.0, 5 mM MgCl2, 5 mM DTT, 0.1 mg/ml BSA, 50 ng/ml heparin, 10% glycerol, ~2 nM 32P-RNA, 20 min on ice
[10] = biological target: T3, dPPR-U8C2 (designed (synthetic; NTD/CTD from Zea …, UniProt PDB:5I9G_1 1-460, D348S;D383S); assay: EMSA; C5,C6 to U; EMSA: 25 mM Tris-HCl pH 8.0, 5 mM MgCl2, 5 mM DTT, 0.1 mg/ml BSA, 50 ng/ml heparin, 10% glycerol, ~2 nM 32P-RNA, 20 min on ice
T3 sequence: T1 sequence

[11] = biological target: T3, dPPR-U8C2; assay: X-ray crystallography; 2.30 A; EMSA: 25 mM Tris-HCl pH 8.0, 5 mM MgCl2, 5 mM DTT, 0.1 mg/ml BSA, 50 ng/ml heparin, 10% glycerol, ~2 nM 32P-RNA, 20 min on ice

Molecule UUCCAGAU [dPPR-4 target] has a Kd [1] of 0.0246 µM.

UUUUAAUUUU [U8A2 target] was tested, and the Kd [2] was 0.0238 µM and the Kd [3] was 0.0589 µM.

UUUUCCUUUU [U8C2 target] gave a Kd [4] of 0.0185 µM and a Kd [5] of 0.0146 µM.

Work on UUUUGGUUUU [U8G2 target] yielded a Kd [6] of 0.0298 µM and a Kd [7] of 0.0311 µM.

UUUUUUUUUU [U10 target] gave a Kd [5] of 0.0159 µM.

GGGGUUUUUUUUUUCCCC (ssRNA) [18-nt U10 crystal RNA]: binds [8].

For UUUUUUUUUU (ssRNA) [U10 target], the Kd [9] was 0.0743 ± 0.0079 µM and the binding result [10] was “no binding”.

GGGGUUUUCCUUUUCCCC (ssRNA) [18-nt U8C2 crystal RNA]: binds [11].
